How the values were obtained:
[1] = biological target: the molecule itself; experiment: crystal structure; hGALT 20 mg/ml pre-incubated with 5 mM UDP-Glc; vapour diffusion at 20 °C, 0.2 M ammonium sulphate, 30% PEG 8000; two chains in the asymmetric unit; dimer interactions analysed with PISA
[2] = biological target: the molecule itself; experiment: small angle X-ray scattering (SAXS); HPLC-SAXS at 10 mg/ml in 10 mM HEPES pH 7.5, 150 mM NaCl, 0.5 mM TCEP; ab initio envelopes by GASBOR

Protein | stoichiometry N [1] | stoichiometry N [2]
uridylylated human galactose 1-phosphate uridylyltransferase (UMP-hGALT) (enzyme, UniProt P07902 1-379, looked up, UMP covalently bound to His186 (uridylylated), human galactose 1-phosphate uridylyltransferase (GALT, EC 2.7.7.12), full length, from a cDNA clone with the p.Asn314Asp polymorphism; Crystallised after pre-incubation with 5 mM UDP-Glc; for SAXS made by overnight incubation with 2 mM UDP-glucose; also called UMP-GALT; uridylylated hGALT; source: incubated with UDP-glucose; not shown: His6, N-terminal, cleaved) MSRSGTDPQQRQQASEADAAAATFRANDHQHIRYNPLQDEWVLVSAHRMKRPWQGQVEPQLLKTVPRHDPLNPLCPGAIRANGEVNPQYDSTFLFDNDFPALQPDAPSPGPSDHPLFQAKSARGVCKVMCFHPWSDVTLPLMSVPEIRAVVDAWASVTEELGAQYPWVQIFENKGAMMGCSNPHPHCQVWASSFLPDIAQREERSQQAYKSQHGEPLLMEYSRQELLRKERLVLTSEHWLVLVPFWATWPYQTLLLPRRHVRRLPELTPAERDDLASIMKKLLTKYDNLFETSFPYSMGWHGAPTGSEAGANWDHWQLHAHYYPPLLRSATVRKFMVGYEMLAQAQRDLTPEQAAERLRALPEVHYHLGQKDRETATIA | 2 | –
apo human galactose 1-phosphate uridylyltransferase (apo-hGALT) (enzyme, UniProt P07902 1-379, looked up, human galactose 1-phosphate uridylyltransferase (GALT, EC 2.7.7.12), full length, from a cDNA clone with the p.Asn314Asp polymorphism; De-uridylylated form made by overnight incubation with 2 mM glucose 1-phosphate; source: incubated with glucose 1-phosphate; not shown: His6, N-terminal, cleaved) MSRSGTDPQQRQQASEADAAAATFRANDHQHIRYNPLQDEWVLVSAHRMKRPWQGQVEPQLLKTVPRHDPLNPLCPGAIRANGEVNPQYDSTFLFDNDFPALQPDAPSPGPSDHPLFQAKSARGVCKVMCFHPWSDVTLPLMSVPEIRAVVDAWASVTEELGAQYPWVQIFENKGAMMGCSNPHPHCQVWASSFLPDIAQREERSQQAYKSQHGEPLLMEYSRQELLRKERLVLTSEHWLVLVPFWATWPYQTLLLPRRHVRRLPELTPAERDDLASIMKKLLTKYDNLFETSFPYSMGWHGAPTGSEAGANWDHWQLHAHYYPPLLRSATVRKFMVGYEMLAQAQRDLTPEQAAERLRALPEVHYHLGQKDRETATIA | – | 2
human galactose 1-phosphate uridylyltransferase variant p.Gln188Arg, hGALT(p.Q188R) (enzyme, UniProt P07902 1-379, looked up, As purified only the apo enzyme was seen by mass spectrometry; not shown: His6, N-terminal, cleaved) MSRSGTDPQQRQQASEADAAAATFRANDHQHIRYNPLQDEWVLVSAHRMKRPWQGQVEPQLLKTVPRHDPLNPLCPGAIRANGEVNPQYDSTFLFDNDFPALQPDAPSPGPSDHPLFQAKSARGVCKVMCFHPWSDVTLPLMSVPEIRAVVDAWASVTEELGAQYPWVQIFENKGAMMGCSNPHPHCRVWASSFLPDIAQREERSQQAYKSQHGEPLLMEYSRQELLRKERLVLTSEHWLVLVPFWATWPYQTLLLPRRHVRRLPELTPAERDDLASIMKKLLTKYDNLFETSFPYSMGWHGAPTGSEAGANWDHWQLHAHYYPPLLRSATVRKFMVGYEMLAQAQRDLTPEQAAERLRALPEVHYHLGQKDRETATIA | – | 2

Reference: article PMC5081055, “Molecular basis of classic galactosemia from the structure of human galactose 1-phosphate uridylyltransferase” (Human Molecular Genetics, 2016)
